Assay results taken from article PMC9573943, “Contribution of the 12–17 hydrophobic region of islet amyloid polypeptide in self-assembly and cytotoxicity” (Frontiers in Molecular Biosciences, 2022).
Entries after “also recorded” stand apart in the source; their conditions may differ. Bridge positions count the residues as written; N and C are the ends. Ends that are not written are not given here.

What was measured:
[1] = cited from earlier work
Excerpt: Countless studies have highlighted the key contributions of the 20–29 domain for IAPP self-assembly, often referred to as the amyloidogenic core ([Glenner et al., 1988]). The fact that the sequence from rodent IAPP (rIAPP) includes three β-breaker prolines within the 20-29 region, and is non-amyloidogenic and poorly toxic, further highlights the critical role of this segment ([Moriarty and Raleigh, 1999]; [Tomasello et al., 2014]).

[2] = Peptide self-assembly under fully quiescent conditions (CD, ThT and ANS fluorescence, TEM, AFM); assay type: physicochemical; conditions: 50 μM peptide; for Assemblies observed by TEM after 48 h incubation / Overall effect of the substitution on amyloid formation, in words: 20 mM Tris-HCl pH 7.4, quiescent; for Assemblies observed by TEM after 48 h incubation: negative stain TEM; for Overall effect of the substitution on amyloid formation, in words: CD, ThT, ANS, TEM, compared with unmodified IAPP
Description: (§1) Solutions were prepared by dissolving the peptide at a concentration of 50 μM in 20 mM Tris-HCl, pH 7.4, and were incubated at room temperature without agitation in 1.5 ml Eppendorf microtubes. For IAPP12-17, the lyophilized peptide was dissolved in 20 mM acetate pH 6.5 in the presence of 3% DMSO, or HFIP, at a final concentration of 500 μM and the peptide solution was incubated at 37 °C under constant rotational agitation.
(§2) At the indicating time of incubation, peptide solutions were diluted to 25 μM in presence of 40 μM ThT, or 25 μM 8-anilino-1-naphthalenesulfonic acid (ANS). Fluorescence was measured in 10-mm pathlength microcells using a PTI QuantaMaster spectrofluorometer. For ThT, excitation was set at 440 nm, and the emission spectrum from 450 to 550 nm was recorded. For ANS, the excitation was set at 355 nm, and the emission scan was recorded from 385 to 585 nm.
(§3) After incubation, peptide solutions were diluted in water to 25 μM and incorporated into a 2-mm path length quartz cell. For IAPP12-17, the solution was diluted to 150 μM. Far-UV CD spectra were recorded from 190 to 260 nm using a Jasco J-815 CD spectropolarimeter at 25°C. The wavelength step was set at 0.5 nm with an average time of 10 s per scan at each wavelength. Spectra were background-subtracted with buffer solution. Raw data were converted to mean residue ellipticity (MRE): MRE=Mean residue weight (g/mol)X CD signal (deg)/10 X pathlength (cm) X peptide concentration (g/mL)
(§4) After incubation, peptide solutions were diluted to 10 μM, or 100 μΜ for IAPP12-17, before being applied on glow-discharged carbon films on 300-mesh copper grids. Samples were adsorbed and negatively stained with 1.5% uranyl formate for 45 s. Images were recorded using a FEI Tecnai G2 Spirit Twin microscope operating at 120 kV and equipped with a Gatan Ultrascan scan 4,000 4k × 4k CCD camera system.
After incubation, peptide solutions were diluted in 1% acetic acid to a concentration of 7.5 μΜ. […] Images were recorded using Veeco/Bruker multimode AFM instrument using ScanAsyst-air mode with a silicon tip (2–12 nm tip radius, 0.4 N/m force) on a nitride lever. Images were taken at 0.977 Hz and 512 scan/min.

INS-1E cells [3] = experiment: Live/Dead viability assay (calcein-AM / ethidium homodimer-1, fluorescence microscopy); assay type: cell-based, Rat; conditions: 25 μM freshly solubilized peptide, 24 h, calcein-AM (green, live) and ethidium homodimer-1 (red, dead)
Description: (§5) Rat INS-1E cells were cultured in treated black-wall clear-bottom 96-well plates at a density of 25,000 cell/well in RPMI-1640 medium supplemented with 10% FBS, 2 mM L-glutamine, 100 U/ml penicillin, 100 μg/ml streptomycin, 10 mM HEPES, 1 mM sodium pyruvate and 50 μM β-mercaptoethanol. After 48 h of incubation at 37°C in 5% CO2, cells were treated with 50 μL of peptide freshly dissolved in 20 mM Tris-HCl, pH 7.4. […] Cell viability (%) was calculated from the ratio of the fluorescence of the treated cells to the vehicle-treated cells. Data of at least five assays performed with different peptide lots were averaged and expressed as the mean ± S.D. Statistical analysis was performed using Student’s t test, and statistically significant difference was established at (*) p < 0.05; (**) p < 0.005; (***) p < 0.0005. For Live/Dead viability assay, cells were plated in 12-well plates at density of 250,000 cell/well for 48 h before treatment with 25 μM peptide.

[4] = Lipid membrane leakage (calcein-loaded LUVs); conditions: 25 μM peptide, 500 μM phospholipids, LUVs DOPC:DOPG 9:1, 20 mM Tris-HCl, 150 mM NaCl, pH 7.4, read every 10 min over 24 h; IAPP value reached after 10 h; at least four assays
Description: Large unilamellar vesicles (LUVs) were assembled from 1,2-Dioleoyl-sn-glycero-3-phosphocholine (DOPC) and 2-dioleoyl-sn-glycero-3-phospho-(1′-rac-glycerol) (DOPG) at a 9:1 M ratio (DOPC:DOPG). Lipids were solubilized in 100% chloroform, which was then evaporated. […] The lipid mixture was freeze-thawed five times before being extruded through a 100 nm membrane for 20 cycles. Nonencapsulated calcein was removed by gel filtration using a Sephadex G25 fine resin and 20 mM Tris-HCl, 150 mM NaCl, pH 7.4, as elution buffer. Final lipid concentration was determined by a colorimetric assay ([Babych et al., 2021]). Lyophilized peptides were solubilized in 20 mM Tris-HCl, 150 mM NaCl, pH 7.4, at 50 μM prior to dilution into calcein-LUVs, to reach 25 μM peptide and 500 μM phospholipids. Fluorescence was monitored in sealed black-wall, clear-bottom 96-well non-binding surface plates with 100 μL/well. […] 100% leakage (Fmax) was determined with 0.2% Triton X-100 and LUV leakage was reported using:
Membrane leakage (%) = (F−F baseline)/(F max−F baseline)
Data of at least four assays with different peptide lots were averaged and expressed as the mean ± S.D. Statistical analysis was performed using Student’s t test, and statistically significant difference was established at (*) p < 0.05; (**) p < 0.005; (***) p < 0.0005.

[5] = Kinetics of amyloid formation monitored by ThT fluorescence; assay type: physicochemical; conditions: 40 μM ThT, 20 mM Tris-HCl pH 7.4, 25°C, no agitation
Description: Aggregation mixtures were prepared by dissolving the lyophilized peptide at a concentration of 50 μM in 20 mM Tris-HCl, pH 7.4. Assays were performed at 25°C without stirring in sealed black-wall clear-bottom 96-well nonbinding surface plates with 100 μL/well. Final peptide concentrations were 12.5 and 25 μM, and thioflavin T (ThT) concentration was fixed at 40 μM. Fluorescence was measured every 10 min (excitation: 440 nm, emission: 485 nm) and data from triplicate wells were averaged, corrected by subtracting the blank control, and plotted as ThT fluorescence vs. time. Data were normalized with maximum ThT fluorescence intensity obtained for unmodified IAPP. Data were fitted to a sigmoidal Boltzmann model: Y=Yo+(Ymax−Yo)/1+e^−(T−T50)/ K where T 50 is the time required to reach half of the maximum fluorescence intensity, k is the apparent first-order constant, and Y max and Y 0 are the maximum and initial ThT fluorescence values. Lag time corresponds to T50 - 2/k. Data of at least six assays performed with different peptide lots were averaged and expressed as the mean ± S.D. Statistical analysis was performed using Student’s t test, and statistically significant difference between IAPP and analogs was established at (*) p < 0.05; (**) p < 0.005; (***) p < 0.0005.

INS-1E cells [6] = experiment: Cell viability by resazurin reduction; assay type: cell-based, Rat; conditions: freshly dissolved peptide up to 50 μM, 24 h, at least five assays
Description: as §5

[7] = TFE titration by far-UV CD spectroscopy (helical folding); assay type: physicochemical; conditions: ellipticity at 222 nm, Tris-HCl 20 mM, TFE titration (0 to 30% TFE)
Description: as §3

[8] = Solubility and self-assembly of the IAPP12-17 fragment (CD, ThT, ANS, TEM); assay type: physicochemical
Description: as §1, §2, §3, §4

[9] = 20 mM Tris-HCl pH 7.4, room temperature, no agitation

Row | Substance | Assemblies observed by TEM after 48 h incubation [2] | Overall effect of the substitution on amyloid formation, in words [2] | Cytotoxicity compared with unmodified IAPP, in words (INS-1E cells [6]) | TFE-induced helical folding compared with unmodified IAPP, in words [7] | other results
1 | ANFLV [pentapeptide corresponding to the segment 13-17 of IAPP, from a recent study] | – | – | – | – | Fibril formation of the 13-17 pentapeptide ([1]; several days of incubation, ref Rozniakowski et al., 2020): did not form fibrils
2 | F15A: full-length IAPP with Phe15 replaced by alanine (KCNTATCATQRLANALVHSSNNFGAILSSTNVGSNTY; disulfide 2-7; ends not checked; UniProt P10997 34-70, looked up, variant F15A) | no fibrillar aggregates could be observed | delayed the appearance of ThT and ANS-positive signals, and β-sheet-rich assemblies | reduced IAPP toxicity | – | Assemblies observed by AFM after 96 h incubation ([2]; 20 mM Tris-HCl pH 7.4, room temperature, no agitation, 96 h): only small aggregates; Assemblies observed by TEM after 168 h (7 days) incubation [2, 9]: amyloid fibrils could be observed; Cell death in Live/Dead assay, in words (INS-1E cells [3]): decreased toxicity compared to unmodified IAPP; Maximum membrane leakage (calcein fluorescence, % of that with Triton X-100) [4]: 55%; Increase of ThT fluorescence signal ([5]; 12.5 μM peptide): no increase of ThT fluorescence signal could be detected; Lag time of amyloid formation ([5]; 25 μM peptide, nonbinding surface 96-well plate, read every 10 min, lag time = T50 - 2/k, mean ± S.D. of at least six assays): 14.2 ± 2.2 h
3 | F15G: full-length IAPP with Gly at position Phe15 (KCNTATCATQRLANGLVHSSNNFGAILSSTNVGSNTY; disulfide 2-7; ends not checked; UniProt P10997 34-70, looked up, variant F15G) | no aggregates could be detected | delayed IAPP amyloid formation | significantly reduced IAPP cytotoxicity | destabilizes the propensity of IAPP to adopt an α-helix | Assemblies observed by TEM after 168 h (7 days) incubation [2, 9]: some partially dispersed amyloid fibrils
4 | L16G: full-length IAPP with Gly at position Leu16 (KCNTATCATQRLANFGVHSSNNFGAILSSTNVGSNTY; disulfide 2-7; ends not checked; UniProt P10997 34-70, looked up, variant L16G) | Oligomer-like structures | delayed IAPP amyloid formation | significantly reduced IAPP cytotoxicity | destabilizes the propensity of IAPP to adopt an α-helix | –
5 | LANFLV [IAPP12-17, short C-amidated peptide encompassing the 12–17 segment (LANFLV) of IAPP] | – | – | – | – | ThT and ANS fluorescence of the aggregates ([8]; 500 μM peptide incubated at 37 °C, diluted to 25 μM with 40 μM ThT or 25 μM ANS): ThT and ANS negative; Assemblies observed by TEM after 7 days incubation ([8]; 500 μM peptide, 20 mM acetate pH 6.5, 3% HFIP or 3% DMSO, 37 °C, constant agitation, longer fibrils with HFIP): laterally aligned rod-like fibrils; Secondary structure over incubation time (far-UV CD) ([8]; 500 μM peptide, 20 mM acetate pH 6.5, 3% HFIP, 37 °C, constant rotary agitation): mainly a random coil secondary structure after its solubilization, which evolves into β-sheet after prolonged incubation times; Solubility, in words ([8]; lyophilized/monomerized peptide, needed HFIP or DMSO before dilution in 20 mM acetate buffer pH 6.5): poor solubility
6 | N14G: full-length IAPP with Asn14 substituted by Gly (KCNTATCATQRLAGFLVHSSNNFGAILSSTNVGSNTY; disulfide 2-7; ends not checked; UniProt P10997 34-70, looked up, variant N14G) | short, less defined, and twisted | – | significantly reduced IAPP cytotoxicity; also recorded: poorly toxic for pancreatic cells, even at 50 μM | destabilizes the propensity of IAPP to adopt an α-helix | Secondary conformation / conformational transition over incubation (far-UV CD), in words ([2]; 20 mM Tris-HCl pH 7.4, room temperature, fully quiescent, up to 7 days): delayed the random coil-to-β-sheet shift
7 | rIAPP: rodent IAPP, includes three β-breaker prolines within the 20-29 region | – | – | – | – | Amyloidogenicity of rodent IAPP ([1]; ref Moriarty and Raleigh, 1999, Tomasello et al., 2014): non-amyloidogenic
